Patent publication US20200024330A1

What was measured:
Assay in all cases: cell-based or functional assay
[1] = biological target: HIV-1 Env of isolate 94UG103 (pseudovirus) (HIV-1)
[2] = biological target: HIV-1 Env of isolate 92UG024 (subtype D), on pseudovirus (HIV-1)
[3] = biological target: HIV-1 Env of isolate MGRM-Chronic-B-008 (HIV-1)
[4] = biological target: HIV-1 Env of isolate MG RM-A-010 (pseudovirus) (HIV-1)
[5] = biological target: HIV-1 Env of isolate 98CN009 (subtype CRF07_BC), on pseudovirus (HIV-1)
[6] = biological target: HIV-1 Env of isolate MGRM-D-003 (subtype D), on pseudovirus (HIV-1)
[7] = biological target: HIV-1 Env of isolate MGRM-D-005 (subtype D), on pseudovirus (HIV-1)
[8] = biological target: HIV-1 Env of isolate 93WR029 (pseudovirus) (HIV-1)
[9] = biological target: HIV-1 Env of isolate APV_6 (HIV-1)
[10] = biological target: HIV-1 Env of isolate 92WR024 (pseudovirus) (HIV-1)
[11] = biological target: HIV-1 Env of isolate APV_13 (HIV-1)
[12] = biological target: HIV-1 Env of isolate MG RM-A-007 (pseudovirus) (HIV-1)
[13] = biological target: HIV-1 Env of isolate 92UG114 (subtype D), on pseudovirus (HIV-1)
[14] = biological target: HIV-1 Env of isolate VLGCA1 (pseudovirus) (HIV-1)
[15] = biological target: HIV-1 Env of isolate MGRM-AE-002 (pseudovirus) (HIV-1)
[16] = biological target: HIV-1 Env of isolate 92RW009 (clade A), on pseudovirus (HIV-1)
[17] = biological target: HIV-1 Env of isolate 92BR020 (HIV-1)
[18] = biological target: HIV-1 Env of isolate MGRM-Chronic-B-001 (HIV-1)
[19] = biological target: HIV-1 Env of isolate MGRM-AE-001 (pseudovirus) (HIV-1)
[20] = biological target: HIV-1 Env of isolate MGRM-Chronic-B-002 (HIV-1)
[21] = biological target: HIV-1 Env of isolate 92RW008 (clade A), on pseudovirus (HIV-1)
[22] = biological target: HIV-1 Env of isolate MGRM-D-008 (subtype D), on pseudovirus (HIV-1)
[23] = biological target: HIV-1 Env of isolate APV_17 (HIV-1)
[24] = biological target: HIV-1 Env of isolate 92UG037 (pseudovirus) (HIV-1)
[25] = biological target: HIV-1 Env of isolate MGRM-AE-003 (pseudovirus) (HIV-1)
[26] = biological target: HIV-1 Env of isolate 92WR020 (pseudovirus) (HIV-1)
[27] = biological target: HIV-1 Env of isolate 92UG001 (subtype D), on pseudovirus (HIV-1)
[28] = biological target: HIV-1 Env of isolate 92WR021 (pseudovirus) (HIV-1)
[29] = biological target: HIV-1 Env of isolate MG RM-A-009 (pseudovirus) (HIV-1)
[30] = biological target: HIV-1 Env of isolate MG RM-A-014 (pseudovirus) (HIV-1)
[31] = biological target: HIV-1 Env of isolate 98CN006 (subtype CRF08 BC), on pseudovirus (HIV-1)
[32] = biological target: HIV-1 Env of isolate MGRM-D-002 (subtype D), on pseudovirus (HIV-1)
[33] = biological target: HIV-1 Env of isolate 92WR026 (pseudovirus) (HIV-1)
[34] = biological target: HIV-1 Env of isolate MG RM-A-012 (pseudovirus) (HIV-1)
[35] = biological target: HIV-1 Env of isolate 92UG031 (pseudovirus) (HIV-1)
[36] = biological target: HIV-1 Env of isolate 94 KE 105 (pseudovirus) (HIV-1)
[37] = biological target: HIV-1 Env of isolate MG RM-A-008 (pseudovirus) (HIV-1)
[38] = biological target: HIV-1 Env of isolate CAAN.A2 (HIV-1)
[39] = biological target: HIV-1 Env of isolate MG RM-A-013 (pseudovirus) (HIV-1)
[40] = biological target: HIV-1 Env of isolate MGRM-D-001 (subtype D), on pseudovirus (HIV-1)
[41] = biological target: HIV-1 Env of isolate JRFL (HIV-1)
[42] = biological target: HIV-1 Env of isolate 92UG005 (subtype D), on pseudovirus (HIV-1)
[43] = biological target: HIV-1 Env of isolate MGRM-Chronic-B-003 (HIV-1)
[44] = biological target: HIV-1 Env of isolate 92UG046 (subtype D), on pseudovirus (HIV-1)
[45] = biological target: HIV-1 Env of isolate MG RM-A-005 (pseudovirus) (HIV-1)
[46] = biological target: HIV-1 Env of isolate 93TH305 (HIV-1)
[47] = biological target: HIV-1 Env of isolate 92TH021 (pseudovirus) (HIV-1)
[48] = biological target: HIV-1 Env of isolate MGRM-Chronic-B-004 (HIV-1)
[49] = biological target: HIV-1 Env of isolate MG RM-A-006 (pseudovirus) (HIV-1)
[50] = biological target: HIV-1 Env of isolate 6535.3 (HIV-1)
[51] = biological target: HIV-1 Env of isolate MGRM-AE-005 (pseudovirus) (HIV-1)
[52] = biological target: HIV-1 Env of isolate MGRM-AE-004 (pseudovirus) (HIV-1)
[53] = biological target: HIV-1 Env of isolate MGRM-D-004 (subtype D), on pseudovirus (HIV-1)
[54] = biological target: HIV-1 Env of isolate MG RM-A-011 (pseudovirus) (HIV-1)
[55] = biological target: HIV-1 Env of isolate CMU02 (pseudovirus) (HIV-1)
[56] = biological target: HIV-1 Env of isolate 93UG077 (pseudovirus) (HIV-1)
[57] = biological target: HIV-1 Env of isolate MGRM-AE-006 (pseudovirus) (HIV-1)

Sequence of 4995_P16 (PGT-145) (antibody) (VH): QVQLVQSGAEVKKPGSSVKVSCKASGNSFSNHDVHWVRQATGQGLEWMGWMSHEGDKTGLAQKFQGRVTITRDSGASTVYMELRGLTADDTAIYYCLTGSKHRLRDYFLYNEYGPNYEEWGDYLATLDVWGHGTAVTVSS
Sequence of 4995_P16 (PGT-145) (antibody) (VL): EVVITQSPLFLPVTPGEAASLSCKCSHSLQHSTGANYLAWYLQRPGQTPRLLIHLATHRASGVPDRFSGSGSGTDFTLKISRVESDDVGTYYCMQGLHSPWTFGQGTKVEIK

4995_P16 (PGT-145) (antibody)
IC50 (µg/mL), pseudovirus neutralization [1]: 0.331 µg/mL
IC50, pseudovirus neutralization [2]: 1.6 µg/mL
IC50 [3]: 1.9 µg/mL
IC50 (µg/mL), pseudovirus neutralization [4]: 0.028 µg/mL
IC50, pseudovirus neutralization [5]: 0.136 µg/mL
IC50, pseudovirus neutralization [6]: 0.006 µg/mL
IC50, pseudovirus neutralization [7]: 10.4 µg/mL
IC50 (µg/mL), pseudovirus neutralization [8]: > 50 µg/mL
IC50 [9]: 0.104 µg/mL
IC50 (µg/mL), pseudovirus neutralization [10]: 0.069 µg/mL
IC50 [11]: 0.337 µg/mL
IC50 (µg/mL), pseudovirus neutralization [12]: > 50 µg/mL
IC50, pseudovirus neutralization [13]: 20.1 µg/mL
IC50 (µg/mL), pseudovirus neutralization [14]: 8.01 µg/mL
IC50 (µg/mL), pseudovirus neutralization [15]: 1.87 µg/mL
IC50, single-round pseudovirus neutralization [16]: 0.026 µg/mL
IC50 [17]: 1.05 µg/mL
IC50 [18]: 3.22 µg/mL
IC50 (µg/mL), pseudovirus neutralization [19]: 20.9 µg/mL
IC50 [20]: 3.67 µg/mL
IC50, single-round pseudovirus neutralization [21]: 0.4 µg/mL
IC50, pseudovirus neutralization [22]: 0.025 µg/mL
IC50 [23]: 0.488 µg/mL
IC50 (µg/mL), pseudovirus neutralization [24]: 3.15 µg/mL
IC50 (µg/mL), pseudovirus neutralization [25]: 0.552 µg/mL
IC50 (µg/mL), pseudovirus neutralization [26]: 0.997 µg/mL
IC50, pseudovirus neutralization [27]: > 50 µg/mL
IC50 (µg/mL), pseudovirus neutralization [28]: 1.62 µg/mL
IC50 (µg/mL), pseudovirus neutralization [29]: 0.235 µg/mL
IC50 (µg/mL), pseudovirus neutralization [30]: 1.36 µg/mL
IC50, pseudovirus neutralization [31]: > 50 µg/mL
IC50, pseudovirus neutralization [32]: > 50 µg/mL
IC50 (µg/mL), pseudovirus neutralization [33]: 1.45 µg/mL
IC50 (µg/mL), pseudovirus neutralization [34]: 0.23 µg/mL
IC50 (µg/mL), pseudovirus neutralization [35]: 3.22 µg/mL
IC50 (µg/mL), pseudovirus neutralization [36]: 1.32 µg/mL
IC50 (µg/mL), pseudovirus neutralization [37]: > 50 µg/mL
IC50 [38]: 7.08 µg/mL
IC50 (µg/mL), pseudovirus neutralization [39]: 1.76 µg/mL
IC50, pseudovirus neutralization [40]: 0.56 µg/mL
IC50 [41]: 30.4 µg/mL
IC50, pseudovirus neutralization [42]: > 50 µg/mL
IC50 [43]: 0.045 µg/mL
IC50, pseudovirus neutralization [44]: > 50 µg/mL
IC50 (µg/mL), pseudovirus neutralization [45]: 0.128 µg/mL
IC50 [46]: 0.032 µg/mL
IC50 (µg/mL), pseudovirus neutralization [47]: 0.013 µg/mL
IC50 [48]: 0.023 µg/mL
IC50 (µg/mL), pseudovirus neutralization [49]: > 50 µg/mL
IC50 [50]: > 50 µg/mL
IC50 (µg/mL), pseudovirus neutralization [51]: 0.967 µg/mL
IC50 (µg/mL), pseudovirus neutralization [52]: 0.006 µg/mL
IC50, pseudovirus neutralization [53]: 10.9 µg/mL
IC50 (µg/mL), pseudovirus neutralization [54]: 0.484 µg/mL
IC50 (µg/mL), pseudovirus neutralization [55]: 1.43 µg/mL
IC50 (µg/mL), pseudovirus neutralization [56]: > 50 µg/mL
IC50 (µg/mL), pseudovirus neutralization [57]: > 50 µg/mL
